In patent publication US20050288217A1 (UNIVERSITY OF NORTH CAROLINA AT CHAPEL HILL, published 2005):

B1: connective tissue growth factor (ligand, UniProt P29279 27-349, looked up)
chain: QNCSGPCRCPDEPAPRCPAGVSLVLDGCGCCRVCAKQLGELCTERDPCDPHKGLFCHFGSPANRKIGVCTAKDGAPCIFGGTVYRSGESFQSSCKYQCTCLDGAVGCMPLCSMDVRLPSPDCPFPRRVKLPGKCCEEWVCDEPKDQTVVGPALAAYRLEDTFGPDPTMIRANCLVQTTEWSACSKTCGMGISTRVTNDNASCRLEKQSRLCMVRPCEADLEENIKKGKKCIRTPKISKPIKFELSGCTSMKTYRAKFCGVCTDGRCCTPHRTTTLPVEFKCPDGEVMKKNMMFIKTCACHYNCPGDNDIFESLYYRKMYGDMA
B2: osteopontin (ligand)
chain: not shown
B3: heparin binding epidermal growth factor (ligand, UniProt Q99075 63-148, looked up)
chain: DLQEADLDLLRVTLSSKPQALATPNKEEHGKRKKKGKGLGKKRDPCLRKYKDFCIHGECKYVKELRAPSCICHPGYHGERCHGLSL
B4: vitronectin (ligand, UniProt P04004 20-478, looked up)
chain: DQESCKGRCTEGFNVDKKCQCDELCSYYQSCCTDYTAECKPQVTRGDVFTMPEDEYTVYDDGEEKNNATVHEQVGGPSLTSDLQAQSKGNPEQTPVLKPEEEAPAPEVGASKPEGIDSRPETLHPGRPQPPAEEELCSGKPFDAFTDLKNGSLFAFRGQYCYELDEKAVRPGYPKLIRDVWGIEGPIDAAFTRINCQGKTYLFKGSQYWRFEDGVLDPDYPRNISDGFDGIPDNVDAALALPAHSYSGRERVYFFKGKQYWEYQFQHQPSQEECEGSSLSAVFEHFAMMQRDSWEDIFELLFWGRTSAGTRQPQFISRDWHGVPGQVDAAMAGRIYISGMAPRPSLAKKQRFRHRNRKGYRSQRGHSRGRNQNSRRPSRATWLSLFSSEESNLGANNYDDYRMDWLVPATCEPIQSVFFFSGDKYYRVNLRTRRVDTVDPPYPRSIAQYWLGCPAPGHL

Each binder was assayed against T1, β3 integrin mutant in which the identical region of the β1 integrin was substituted for the 8 amino acid … (UniProt P05106 27-788) (assay: binding assay on CHO cells expressing the mutant β3).
T1 construct: whole, on cells; also called mutant protein; β3 mutant
T1 sequence (looked up): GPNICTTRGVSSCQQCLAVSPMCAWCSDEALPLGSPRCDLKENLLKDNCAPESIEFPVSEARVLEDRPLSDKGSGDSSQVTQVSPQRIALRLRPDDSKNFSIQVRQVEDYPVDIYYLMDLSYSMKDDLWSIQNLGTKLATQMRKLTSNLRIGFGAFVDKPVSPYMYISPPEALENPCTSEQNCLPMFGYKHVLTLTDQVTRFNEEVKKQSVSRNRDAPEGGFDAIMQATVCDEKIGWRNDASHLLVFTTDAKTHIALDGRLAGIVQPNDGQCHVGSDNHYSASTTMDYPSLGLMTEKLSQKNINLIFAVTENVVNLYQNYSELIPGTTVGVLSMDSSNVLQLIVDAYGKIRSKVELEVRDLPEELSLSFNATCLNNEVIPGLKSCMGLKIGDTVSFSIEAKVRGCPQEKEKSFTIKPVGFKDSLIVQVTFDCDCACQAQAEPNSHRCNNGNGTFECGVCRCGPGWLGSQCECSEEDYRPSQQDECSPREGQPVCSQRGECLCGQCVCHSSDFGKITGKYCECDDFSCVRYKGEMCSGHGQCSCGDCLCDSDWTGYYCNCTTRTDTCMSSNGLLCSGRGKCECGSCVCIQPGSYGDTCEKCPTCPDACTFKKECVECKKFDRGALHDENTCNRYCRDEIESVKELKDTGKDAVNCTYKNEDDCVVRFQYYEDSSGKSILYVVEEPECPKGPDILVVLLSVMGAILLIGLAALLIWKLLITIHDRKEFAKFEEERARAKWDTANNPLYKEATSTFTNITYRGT

Row | Binder | binding result
1 | B1 | no binding
2 | B2 | no binding
3 | B3 | no binding
4 | B4 | no binding
